From patent US6635450 come the findings set out here.

Data set [1] concerns recombinant mouse Kip1 with a C-terminal hexahistidine sequence (expressed in BL21(DE3) bacteria from pET21a).
In data set [2] the test system is Kip1 (28-79), 52-amino acid peptide with a C-terminal hexahistidine tag.
Data set [3] has as its target His-cyclin E-Cdk2 complex (baculoviral human cyclin E with N-terminal hexahistidine, in complex with baculoviral Cdk2) (human) (UniProt P24864). Nature of the data set: cell-based or functional assay.
Data set [4] concerns the target human cyclin A-Cdk2 complex (baculovirally expressed) (human) (UniProt P20248). Nature of the data set: cell-based or functional assay.

Sequence of recombinant mouse Kip1 with a C-terminal hexahistidine sequence (expressed in BL21(DE3) bacteria from pET21a) (chain, as listed by the source): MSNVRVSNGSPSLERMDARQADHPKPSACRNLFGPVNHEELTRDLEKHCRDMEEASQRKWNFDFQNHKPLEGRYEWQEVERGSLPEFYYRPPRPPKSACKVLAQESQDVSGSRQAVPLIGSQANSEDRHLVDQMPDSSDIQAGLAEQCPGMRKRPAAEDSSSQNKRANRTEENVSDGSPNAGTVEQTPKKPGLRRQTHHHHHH
Sequence of Kip1 (28-79), 52-amino acid peptide with a C-terminal hexahistidine tag (chain, as listed by the source): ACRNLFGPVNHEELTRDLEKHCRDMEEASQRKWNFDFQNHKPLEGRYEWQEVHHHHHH

Turning to “His-cyclin E-Cdk2 complex (baculoviral human cyclin E with N-terminal hexahistidine, in complex with baculoviral Cdk2)”, the “Rb kinase activity (phosphorylation of a GST-Rb fusion product)” value in data set [1] is reported as “Addition of Kip1 to cyclin E-Cdk2, cyclin A-Cdk2 or cyclin D2-Cdk4 complexes inhibited their ability to phosphorylate a GST-Rb fusion product”. Further, the Rb phosphorylation result in data set [2] is “inhibited cyclin E-Cdk2 or cyclin D2:Cdk4 less effectively”.

“cyclin E-Cdk2 complexes assembled in A549 cell extracts (added histidine-tagged baculoviral cyclin E with the endogenous Cdk2)”: the “cyclin E-associated histone H1 kinase activity and Thr160-phosphorylated form of Cdk2 on western blot” value in data set [1] is recorded as “Addition of histidine-tagged Kip1 to the cell extracts markedly decreased the level of cyclin E-associated kinase activity”.

“human cyclin A-Cdk2 complex (baculovirally expressed)”: the “Rb kinase activity (phosphorylation of a GST-Rb fusion product)” value in data set [1] was “Addition of Kip1 to cyclin E-Cdk2, cyclin A-Cdk2 or cyclin D2-Cdk4 complexes inhibited their ability to phosphorylate a GST-Rb fusion product”. In data set [2], the Rb phosphorylation result is given as “This peptide inhibited Rb phosphorylation by cyclin A-Cdk2 with a potency that was close to that of full length Kip1”.

As to “recombinant mouse Kip1 with a C-terminal hexahistidine sequence (expressed in BL21(DE3) bacteria from pET21a) (from UniProt P46414 1-197)”, the histone H1 kinase activity, half-maximal inhibition in data set [3] amounted to 0.5 nM. Besides, the histone H1 kinase activity, concentration for complete inhibition in data set [4] is 8 fold.
